In article PMC10914744, “Key homeobox transcription factors regulate the development of the firefly’s adult light organ and bioluminescence”:

What was measured:
AlABD-B [1] = molecular target: T1, AlABD-B (Aquatica leii, UniProt A0AAN7SB49 90-481); assay: EMSA; poly(dI-dC); no significant complex detected; LightShift EMSA kit; 2.0 ug protein (stored in PBS, 10% glycerol), 0.2 pmol probe, 2 ug/uL poly(dI-dC), 60 min at room temperature, native 6% PAGE; binding buffer salt and pH not stated; details: protein: recombinant; tags: His (pET28a, Ni-NTA); blunt
T1 sequence (A0AAN7SB49 entry or part of it): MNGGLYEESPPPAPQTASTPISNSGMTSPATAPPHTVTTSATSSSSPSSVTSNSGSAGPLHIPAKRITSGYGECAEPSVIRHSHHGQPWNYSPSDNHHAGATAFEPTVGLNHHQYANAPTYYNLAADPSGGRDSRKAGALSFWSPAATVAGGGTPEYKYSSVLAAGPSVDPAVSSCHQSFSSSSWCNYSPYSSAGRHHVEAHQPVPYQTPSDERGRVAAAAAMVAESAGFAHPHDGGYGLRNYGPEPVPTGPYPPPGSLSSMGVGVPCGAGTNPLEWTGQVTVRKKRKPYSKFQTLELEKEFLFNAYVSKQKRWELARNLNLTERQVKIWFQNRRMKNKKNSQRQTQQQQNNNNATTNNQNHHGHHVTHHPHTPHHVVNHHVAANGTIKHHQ

AlABD-B [2] = molecular target: T1, AlABD-B; assay: EMSA; poly(dI-dC); signal significantly reduced by unlabeled WT probe; LightShift EMSA kit; 2.0 ug protein (stored in PBS, 10% glycerol), 0.2 pmol probe, 2 ug/uL poly(dI-dC), 60 min at room temperature, native 6% PAGE; binding buffer salt and pH not stated; details: protein: recombinant; tags: His (pET28a, Ni-NTA); label: biotin; blunt

B1: ABD-B binding site mutation probe (dsDNA)
DNA 1: ATACATTAAAGTATCCGGCGGGAACCGGCAATCTGCCGGGATATATAAAAAACA
DNA 2: TGTTTTTTATATATCCCGGCAGATTGCCGGTTCCCGCCGGATACTTTAATGTAT
Does B1 bind (AlABD-B [1])?
Result: no binding

B2: biotin-WT AlLuc1 promoter probe (dsDNA)
DNA 1: ATACATTAAAGTATCTAATAAAAATTAATGGTTCATTAAGATATATAAAAAACA
DNA 2: TGTTTTTTATATATCTTAATGAACCATTAATTTTTATTAGATACTTTAATGTAT
Does B2 bind (AlABD-B [2])?
Result: binds
